Results reported in doi:10.1101/2025.09.18.677151, “Structure and substrate recognition by the Twin-arginine translocation (Tat) pathway core complex” (bioRxiv, 2025).

Key:
[1] = molecular target: the molecule itself; assay: cryo-EM structure; M. xanthus TatBC complex purified in GDN; single particle, C3 symmetry
E. coli TatBC complex = molecular target: T1, E. coli TatBC complex (E. coli, UniProt P69425 1-171; P69423 1-258); assay: cryo-EM structure; purified MdoD (SUMO removed) mixed with purified E. coli Tat complex in 0.02% GDN overnight at 4°C, SEC; core region 2.4 Å (C3), focused refinement on MdoD 2.1 Å (C2); conditions: both partners purified
T1 construct: TatB, E. coli; amplified from E. coli genomic DNA (DSM 1116); TatC, E. coli; also called TatB3C3; (TatBC)3; source: E. coli MC4100 ΔtatABCD ΔtatE, pQE60 based vector, overexpressed; purified in GDN (His-tag resin, SEC); for the pull-down captured from GDN-solubilised membranes on His-tag resin and washed; copies: 3 + 3
T1 sequence 1: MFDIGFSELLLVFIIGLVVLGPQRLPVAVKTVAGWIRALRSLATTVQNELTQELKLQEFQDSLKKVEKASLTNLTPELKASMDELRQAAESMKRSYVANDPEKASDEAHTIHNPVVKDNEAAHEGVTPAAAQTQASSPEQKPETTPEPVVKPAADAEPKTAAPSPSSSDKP
T1 sequence 2: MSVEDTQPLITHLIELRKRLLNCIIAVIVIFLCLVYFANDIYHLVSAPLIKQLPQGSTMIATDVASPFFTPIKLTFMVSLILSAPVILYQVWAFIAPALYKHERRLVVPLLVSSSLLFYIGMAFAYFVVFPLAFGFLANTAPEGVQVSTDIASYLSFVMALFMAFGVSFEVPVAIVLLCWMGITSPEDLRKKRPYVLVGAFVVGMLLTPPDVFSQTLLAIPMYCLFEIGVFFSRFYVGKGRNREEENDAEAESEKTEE

[2] = molecular target: the molecule itself; assay: as above
[3] = molecular target: T2, E. coli TatC with a C-terminal strep tag, expressed from the tatABC plasmid (E. coli, UniProt P69423 1-258); assay: quantification of Coomassie stained SDS-PAGE bands of the purified complexes; purified E. coli TatABC and TatBC loaded at 4 dilutions; bands quantified with ImageJ; three independent samples; conditions: both partners purified
T2 construct: TatC, E. coli; also called TatC_(strep); source: E. coli MC4100 ΔtatABCD ΔtatE, tatABC operon on a low copy number plasmid; in GDN-solubilised membranes, captured on Streptactin XT; not shown: strep tag, C-terminal, kept
T2 sequence: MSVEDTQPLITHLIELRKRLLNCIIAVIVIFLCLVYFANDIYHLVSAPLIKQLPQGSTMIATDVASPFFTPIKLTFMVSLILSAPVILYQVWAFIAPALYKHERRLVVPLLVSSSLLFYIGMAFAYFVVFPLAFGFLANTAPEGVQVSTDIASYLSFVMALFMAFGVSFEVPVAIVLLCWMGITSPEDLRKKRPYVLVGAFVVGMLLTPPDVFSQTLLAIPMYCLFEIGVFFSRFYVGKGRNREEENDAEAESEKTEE

[4] = molecular target: the molecule itself; assay: cryo-EM structure; E. coli TatBC complex purified in GDN; single particle, C3 symmetry, 3.1 Å
[5] = molecular target: the molecule itself; assay: crystal structure; selenomethionine-labelled M. xanthus TatC periplasmic domain; sitting drop, 21 °C; data to 2.0 Å
[6] = molecular target: the molecule itself; assay: cryo-EM structure; N. salsuginis TatBC complex purified in GDN; single particle, C3 symmetry

B1: M. xanthus TatC (GFP-His removed) (natural protein, Myxococcus xanthus)
chain: MSLADHLTELRSRLMRCTIAVLILGTISLVFAKPIFGLLMQPVLDALPPENRSLIYTSGIEELNVLMKVGVYCGIFLTTPVILMQIWGFVSPGLYPEERRFAAPFVAFGSIAFLLGAAFCYFAVLPSMFTFLLNEEETLALEQRLDTARLRADDALRFLRLGEAEEAGRIAKETSTQLRAEGQGQAPAPEVAPAASVEMTGRLDGLGRLLDAASVGYGAQSRGVLRQAVEKRVEAVTAYEKKDFAAAAAAMDGSASLLAGIAPTRTEELAGLWRLEKELATAHAAHEAARWTRPMLSMHEQLSLVLLLILAFGIIFELPLVMALLGVVGVVKSSWLFRYQRHAFVVCLIAAAIITPTGDVVNLSLMAGPMLLCYELGVLLVWMVERRRARNSAETGITPAS
notes: TatC, Myxococcus xanthus, with a large periplasmic insert; gene codon-optimised and synthesised; source: E. coli strain L56, pWALDO based pTatC-GFP-His, co-overexpressed with TatB-strep; purified in GDN (Ni-NTA, TEV, Streptactin XT, SEC)
In the case of B1, the “stoichiometry N” value [1] is reported as 3.

B2: E. coli MdoD, full length with its Tat signal peptide (natural protein, UniProt P40120 1-551, looked up)
chain: MDRRRFIKGSMAMAAVCGTSGIASLFSQAAFAADSDIADGQTQRFDFSILQSMAHDLAQTAWRGAPRPLPDTLATMTPQAYNSIQYDAEKSLWHNVENRQLDAQFFHMGMGFRRRVRMFSVDPATHLAREIHFRPELFKYNDAGVDTKQLEGQSDLGFAGFRVFKAPELARRDVVSFLGASYFRAVDDTYQYGLSARGLAIDTYTDSKEEFPDFTAFWFDTVKPGATTFTVYALLDSASITGAYKFTIHCEKSQVIMDVENHLYARKDIKQLGIAPMTSMFSCGTNERRMCDTIHPQIHDSDRLSMWRGNGEWICRPLNNPQKLQFNAYTDNNPKGFGLLQLDRDFSHYQDIMGWYNKRPSLWVEPRNKWGKGTIGLMEIPTTGETLDNIVCFWQPEKAVKAGDEFAFQYRLYWSAQPPVHCPLARVMATRTGMGGFSEGWAPGEHYPEKWARRFAVDFVGGDLKAAAPKGIEPVITLSSGEAKQIEILYIEPIDGYRIQFDWYPTSDSTDPVDMRMYLRCQGDAISETWLYQYFPPAPDKRQYVDDRVMS
notes: MdoD (OpgD), E. coli, precursor with the 32 residue Tat signal peptide; amplified from E. coli genomic DNA (DSM 1116); also called OpgD; source: E. coli BL21 (DE3) ΔtatABCD ΔtatE, pET28a modified, purified (His-tag resin), His6-SUMO removed with Ulp1; not shown: His6-SUMO, N-terminal, cleaved
B2 was tested, and the “stoichiometry N” value (E. coli TatBC complex) was 3 and the “stoichiometry N” value [2] was 2.

B3: E. coli TatB expressed from the tatABC plasmid (natural protein)
chain: MFDIGFSELLLVFIIGLVVLGPQRLPVAVKTVAGWIRALRSLATTVQNELTQELKLQEFQDSLKKVEKASLTNLTPELKASMDELRQAAESMKRSYVANDPEKASDEAHTIHNPVVKDNEAAHEGVTPAAAQTQASSPEQKPETTPEPVVKPAADAEPKTAAPSPSSSDKP
notes: TatB, E. coli; source: E. coli MC4100 ΔtatABCD ΔtatE, tatABC operon on a low copy number plasmid; in GDN-solubilised membranes, co-purified
With B3 the “ratio of TatB to TatC in the TatABC complex relative to the TatBC complex” value [3] was 0.78.

B4: E. coli TatB (subunit of the overexpressed TatBC complex) (natural protein)
chain: MFDIGFSELLLVFIIGLVVLGPQRLPVAVKTVAGWIRALRSLATTVQNELTQELKLQEFQDSLKKVEKASLTNLTPELKASMDELRQAAESMKRSYVANDPEKASDEAHTIHNPVVKDNEAAHEGVTPAAAQTQASSPEQKPETTPEPVVKPAADAEPKTAAPSPSSSDKP
notes: TatB, E. coli; amplified from E. coli genomic DNA (DSM 1116); residues 1-63 modelled in the cryo-EM map; source: E. coli MC4100 ΔtatABCD ΔtatE, pQE60 based vector, co-overexpressed with TatC; purified in GDN (His-tag resin, SEC)
B4: binds [4].

B5: M. xanthus TatC periplasmic domain (residues 127-303) (domain or fragment, Myxococcus xanthus, UniProt Q2PHA2 127-303, looked up)
chain: SMFTFLLNEEETLALEQRLDTARLRADDALRFLRLGEAEEAGRIAKETSTQLRAEGQGQAPAPEVAPAASVEMTGRLDGLGRLLDAASVGYGAQSRGVLRQAVEKRVEAVTAYEKKDFAAAAAAMDGSASLLAGIAPTRTEELAGLWRLEKELATAHAAHEAARWTRPMLSMHEQLS
modifications: selenomethionine-labelled
notes: TatC, Myxococcus xanthus, periplasmic domain, residues 127-303; also called M. xanthus insert; M. xanthus periplasmic domain; source: E. coli B834 (DE3), pET15b, purified (Ni-NTA, TEV, SEC)
B5 was tested, and the “stoichiometry N” value [5] was 3.

B6: N. salsuginis TatC (GFP-His removed) (natural protein, Nitratifractor salsuginis)
chain: MFESMKPHLAELRQRLAISVLAVFVGFIIAFTFHNAILGWITKPLNNALIQVGKIVEKREMGTWKISGNEHNATLAPSKSPALLSDHAQSAEKLHRTLAEASQATQNPKLQKLLSQAASAAEELARNSRILRKALVKEENLTRQAVNQNLREKSFNGMITTHQVGGAFFVALKVSFFAGILMAMPVILWQLWLFIAPGLYDNEKKMVLPFVVGGSVMFLIGVLFAYYVVTPFGFQFLITFGSFLYTPLINIEDYVGFFTKILIGFGIAFELPVVAYFLALLGLITDKTLKDYFKYAIVIIFLLAAFLTPPDVLTQLLMAAPLILLYGLSILIVHYVNPYKPEEKEDDEEEEEDEFEKAEREFEALEKGSESHES
notes: TatC, Nitratifractor salsuginis, with a large periplasmic insert; gene codon-optimised and synthesised; source: E. coli strain L56, pWALDO based pTatC-GFP-His, co-overexpressed with TatB-strep or TatA-strep; purified in GDN or digitonin (Ni-NTA, TEV, Streptactin XT, SEC)
With B6 the “stoichiometry N” value [6] was 3.
